This test concerns the target acetylcholine receptor (Homo sapiens, UniProt P02708). Kind of test: SPR binding affinity (RU) of optimized 5mer/6mer/7mer peptides, Examples 6-7. Particulars: SPR, Resonance Units; peptides tested at 10 μM; 6mer-1 Bottom sequence. The procedure, abridged:
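SPR, peptides at 10 μM; read-out = response units (RU). Sequences drawn from top- or bottom-frequency amino acid combinations, 5mer/6mer-1/6mer-2 libraries.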
In general terms: SPR reads the build-up and loss of mass on a sensor chip optically.

Chain of acetylcholine receptor (P02708 21-457): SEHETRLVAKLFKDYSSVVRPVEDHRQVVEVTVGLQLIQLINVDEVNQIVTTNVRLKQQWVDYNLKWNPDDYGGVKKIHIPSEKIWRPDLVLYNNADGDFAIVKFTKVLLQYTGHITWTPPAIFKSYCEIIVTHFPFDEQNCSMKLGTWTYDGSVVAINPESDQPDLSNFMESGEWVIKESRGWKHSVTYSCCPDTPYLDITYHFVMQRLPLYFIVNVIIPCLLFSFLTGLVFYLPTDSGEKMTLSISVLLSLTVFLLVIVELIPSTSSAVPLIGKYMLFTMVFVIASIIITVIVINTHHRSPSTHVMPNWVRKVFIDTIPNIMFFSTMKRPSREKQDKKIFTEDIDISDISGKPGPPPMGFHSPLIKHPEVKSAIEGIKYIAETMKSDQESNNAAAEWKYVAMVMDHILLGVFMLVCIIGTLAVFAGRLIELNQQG

For the substance 6mer-1-1060 (KRYNVR), the Binding affinity is 21 Ru.

6mer-1-1061 (RRISIR): the Binding affinity was 41 Ru.

For 6mer-1-1062 (RRICMR), the Binding affinity worked out at 27 Ru.

On to 6mer-1-1063 (KKIDHK), for which the Binding affinity is listed as 25 Ru.

6mer-1-1064 (RKPTAK): the Binding affinity is 41 Ru.

For 6mer-1-1065 (KRDKAK), the Binding affinity was determined as 23 Ru.

On to 6mer-1-1066 (RKEDVK), for which the Binding affinity is recorded as 23 Ru.

Turning to 6mer-1-1067 (RRKHWK), the Binding affinity came to 38 Ru.

On to 6mer-1-1068 (KRYHIR), for which the Binding affinity is reported as 31 Ru.

For the substance 6mer-1-1069 (KKIWAR), the Binding affinity stood at 23 Ru.

6mer-1-1070 (KKTCDK): the Binding affinity turned out to be 24 Ru.

Regarding 6mer-1-1071 (RKTKAK), the Binding affinity is listed as 38 Ru.

For 6mer-1-1072 (KKCTPR), the Binding affinity came out at 36 Ru.

For the substance 6mer-1-1073 (RKYMWK), the Binding affinity is recorded as 27 Ru.

Take 6mer-1-1074 (KRTCGR): the Binding affinity amounted to 24 Ru.

Turning to 6mer-1-1075 (KKPSVK), the Binding affinity was found to be 38 Ru.

Take 6mer-1-1076 (RKKEPK): the Binding affinity is 43 Ru.

Consider 6mer-1-1077 (RRKWGR), for which the Binding affinity was 24 Ru.

6mer-1-1078 (RRPDIK): the Binding affinity is 25 Ru.

Regarding 6mer-1-1079 (RKHPVK), the Binding affinity was determined as 25 Ru.

As to 6mer-1-1080 (KKHNMR), the Binding affinity was found to be 38 Ru.

Turning to 6mer-1-1081 (KRPSNK), the Binding affinity is listed as 23 Ru.

In the case of 6mer-1-1082 (KKTCDR), the Binding affinity was found to be 37 Ru.

In the case of 6mer-1-1083 (KKNAVR), the Binding affinity was determined as 36 Ru.

On to 6mer-1-1084 (KKCCPK), for which the Binding affinity is recorded as 25 Ru.

For 6mer-1-1085 (KREAMK), the Binding affinity was 33 Ru.

As for 6mer-1-1086 (RKEANK), the Binding affinity came out at 22 Ru.

Consider 6mer-1-1087 (KKPWKR), for which the Binding affinity was determined as 27 Ru.

Turning to 6mer-1-1088 (RRETHK), the Binding affinity is 38 Ru.

Consider 6mer-1-1089 (RKFTKK), for which the Binding affinity came to 31 Ru.

As to 6mer-1-1090 (KKTMWR), the Binding affinity turned out to be 27 Ru.

Take 6mer-1-1091 (KKDDGK): the Binding affinity is recorded as 32 Ru.

In the case of 6mer-1-1092 (RKYHDK), the Binding affinity came to 43 Ru.

For the substance 6mer-1-1093 (RRKSDR), the Binding affinity is 37 Ru.

Regarding 6mer-1-1094 (RRMAIK), the Binding affinity was 42 Ru.

As for 6mer-1-1095 (RRCHVK), the Binding affinity is listed as 27 Ru.

As for 6mer-1-1096 (RKPEPR), the Binding affinity came to 23 Ru.

Turning to 6mer-1-1097 (RKNCNK), the Binding affinity came to 39 Ru.

Take 6mer-1-1098 (RKKDMR): the Binding affinity came out at 42 Ru.

In the case of 6mer-1-1099 (RRKTDR), the Binding affinity stood at 24 Ru.

Turning to 6mer-1-1100 (KRMSHK), the Binding affinity was determined as 43 Ru.

In the case of 6mer-1-1101 (RRECDK), the Binding affinity was found to be 37 Ru.

On to 6mer-1-1102 (KRFTKK), for which the Binding affinity is reported as 35 Ru.

Take 6mer-1-1103 (KREDNK): the Binding affinity is recorded as 27 Ru.

As for 6mer-1-1104 (KRNSAR), the Binding affinity was found to be 28 Ru.

For the substance 6mer-1-1105 (RRCTAR), the Binding affinity worked out at 40 Ru.

Take 6mer-1-1106 (KRFMNK): the Binding affinity was 39 Ru.

For 6mer-1-1107 (KRCPPR), the Binding affinity was 36 Ru.

Consider 6mer-1-1108 (RRAHNK), for which the Binding affinity came out at 43 Ru.

Consider 6mer-1-1109 (KRCCVR), for which the Binding affinity was determined as 41 Ru.

With 6mer-1-1110 (RKFTER), the Binding affinity amounted to 24 Ru.

In the case of 6mer-1-1111 (RRASPR), the Binding affinity is 38 Ru.

Take 6mer-1-1112 (KKDPWK): the Binding affinity is 27 Ru.

On to 6mer-1-1113 (RRCTMK), for which the Binding affinity stood at 28 Ru.

On to 6mer-1-1114 (KKFNFK), for which the Binding affinity stood at 38 Ru.

Turning to 6mer-1-1115 (RKCAFR), the Binding affinity worked out at 43 Ru.

Consider 6mer-1-1116 (KRHPFR), for which the Binding affinity is on record as 35 Ru.

Consider 6mer-1-1117 (KKEWFR), for which the Binding affinity stood at 40 Ru.

Turning to 6mer-1-1118 (KKDTIK), the Binding affinity is on record as 33 Ru.

For 6mer-1-1119 (KRIWVR), the Binding affinity was 31 Ru.

On to 6mer-1-1120 (RRKEAK), for which the Binding affinity is listed as 22 Ru.

Consider 6mer-1-1121 (KKTWWR), for which the Binding affinity is recorded as 28 Ru.

On to 6mer-1-1122 (RRTMGR), for which the Binding affinity amounted to 33 Ru.

Take 6mer-1-1123 (RRDNVK): the Binding affinity was 41 Ru.

Take 6mer-1-1124 (KKDEIR): the Binding affinity amounted to 21 Ru.

Turning to 6mer-1-1125 (KKPTDR), the Binding affinity was found to be 26 Ru.

As to 6mer-1-1126 (RRHCDK), the Binding affinity amounted to 41 Ru.

Turning to 6mer-1-1127 (RKMMMK), the Binding affinity was 34 Ru.

In the case of 6mer-1-1128 (KKKKPK), the Binding affinity is 39 Ru.

With 6mer-1-1129 (RKDHAR), the Binding affinity was 39 Ru.

On to 6mer-1-1130 (RKATFR), for which the Binding affinity is recorded as 31 Ru.

Regarding 6mer-1-1131 (RKDNIK), the Binding affinity was 42 Ru.

In the case of 6mer-1-1132 (RRKAER), the Binding affinity was found to be 31 Ru.

6mer-1-1133 (KKPNIK): the Binding affinity is 24 Ru.

As for 6mer-1-1134 (KRMSWK), the Binding affinity came to 22 Ru.

For 6mer-1-1135 (KKHTER), the Binding affinity is 26 Ru.

For 6mer-1-1136 (KKIEIK), the Binding affinity is on record as 34 Ru.

6mer-1-1137 (KRFTDK): the Binding affinity was determined as 33 Ru.

6mer-1-1138 (KRDCFR): the Binding affinity was 21 Ru.

As for 6mer-1-1139 (KKMENR), the Binding affinity is recorded as 36 Ru.

On to 6mer-1-1140 (KRATMK), for which the Binding affinity is listed as 43 Ru.

On to 6mer-1-1141 (KRNMHK), for which the Binding affinity turned out to be 40 Ru.

Consider 6mer-1-1142 (KKETPR), for which the Binding affinity is 24 Ru.

With 6mer-1-1143 (KRHEFK), the Binding affinity is 32 Ru.

As to 6mer-1-1144 (KKCMGR), the Binding affinity came to 25 Ru.

For 6mer-1-1145 (RRDCKK), the Binding affinity was determined as 40 Ru.

On to 6mer-1-1146 (KKMMPK), for which the Binding affinity is recorded as 34 Ru.

Consider 6mer-1-1147 (RKAPHR), for which the Binding affinity worked out at 35 Ru.

Take 6mer-1-1148 (RRCSHR): the Binding affinity came to 31 Ru.

Take 6mer-1-1149 (RKMTPK): the Binding affinity is reported as 30 Ru.

With 6mer-1-1150 (KRKWWR), the Binding affinity is given as 34 Ru.

Regarding 6mer-1-1151 (KKKEAK), the Binding affinity was determined as 34 Ru.

Regarding 6mer-1-1152 (RKYKEK), the Binding affinity turned out to be 23 Ru.

6mer-1-1153 (RKHNKK): the Binding affinity is reported as 23 Ru.

In the case of 6mer-1-1154 (RKCEKR), the Binding affinity stood at 41 Ru.

In the case of 6mer-1-1155 (RKKEKR), the Binding affinity is 28 Ru.

6mer-1-1156 (KRYTVR): the Binding affinity is on record as 37 Ru.

On to 6mer-1-1157 (RKESVR), for which the Binding affinity was 36 Ru.

Consider 6mer-1-1158 (RKPMMK), for which the Binding affinity is 33 Ru.

Consider 6mer-1-1159 (RRAWPR), for which the Binding affinity turned out to be 39 Ru.

As to 6mer-1-1160 (RRDWAK), the Binding affinity worked out at 29 Ru.

6mer-1-1161 (KRHWVK): the Binding affinity worked out at 40 Ru.

With 6mer-1-1162 (KKCDHR), the Binding affinity is listed as 41 Ru.

For the substance 6mer-1-1163 (RKCAFK), the Binding affinity stood at 21 Ru.

6mer-1-1164 (KKHHAK): the Binding affinity is 41 Ru.

For 6mer-1-1165 (RRATWR), the Binding affinity was 29 Ru.

For 6mer-1-1166 (KKEEKR), the Binding affinity was found to be 22 Ru.

Turning to 6mer-1-1167 (KRHMMK), the Binding affinity is listed as 42 Ru.

As for 6mer-1-1168 (KKEKFR), the Binding affinity worked out at 40 Ru.

Take 6mer-1-1169 (RKMDIR): the Binding affinity came out at 32 Ru.

As for 6mer-1-1170 (KKYNPK), the Binding affinity was found to be 25 Ru.

With 6mer-1-1171 (RKIAFK), the Binding affinity was determined as 40 Ru.

On to 6mer-1-1172 (RRFNFR), for which the Binding affinity was 23 Ru.

In the case of 6mer-1-1173 (KKIPMK), the Binding affinity is recorded as 26 Ru.

6mer-1-1174 (RKDAIR): the Binding affinity is 30 Ru.

As to 6mer-1-1175 (RKTWEK), the Binding affinity amounted to 23 Ru.

In the case of 6mer-1-1176 (KKADHK), the Binding affinity was 21 Ru.

Turning to 6mer-1-1177 (RRHTMR), the Binding affinity came out at 21 Ru.

In the case of 6mer-1-1178 (RKKMAK), the Binding affinity is recorded as 29 Ru.

For 6mer-1-1179 (KRMTPR), the Binding affinity amounted to 40 Ru.

For the substance 6mer-1-1180 (KRPPPK), the Binding affinity was determined as 34 Ru.

For the substance 6mer-1-1181 (RRMDAK), the Binding affinity turned out to be 21 Ru.

6mer-1-1182 (KKTCHR): the Binding affinity came to 35 Ru.

Turning to 6mer-1-1183 (RKIHNK), the Binding affinity stood at 35 Ru.

Consider 6mer-1-1184 (RRDTVK), for which the Binding affinity was 30 Ru.

Take 6mer-1-1185 (KKEMMK): the Binding affinity amounted to 29 Ru.

Regarding 6mer-1-1186 (KKNNAK), the Binding affinity came to 37 Ru.

For the substance 6mer-1-1187 (RRHAHK), the Binding affinity was determined as 26 Ru.

Regarding 6mer-1-1188 (RRMNER), the Binding affinity is given as 41 Ru.

Regarding 6mer-1-1189 (KKCHWR), the Binding affinity is 40 Ru.

6mer-1-1190 (KKCMKR): the Binding affinity stood at 29 Ru.

The values above are taken from patent US20250011363A1, “OPTIMIZED SHORTENED PEPTIDE THAT BINDS TO ACETYLCHOLINE RECEPTOR, AND USE THEREOF” (SKINMED CO., LTD., priority 2021, published 2025).
